Data from the nanobody polyreactivity screen of Harvey et al. (2022).

Assay: yeast display, Sf9 membrane polyspecificity reagent, FACS + sequencing; frameworks hold sequencing errors
Outline: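 In a synthetic yeast display library (Saccharomyces cerevisiae BJ5465), nanobody expression was induced with galactose for 36–48 hours. FACS gates were set low and high (top ~1%) using anti-HA fluorescence for expression and streptavidin fluorescence for binding of the Sf9 membrane reagent. Each polyreactivity label is drawn from the gate of origin.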

Row | Sequence | polyreactivity (PSR sort gate)
1 | QVQLVESGGGLVQAGVSLRLSCSASGGTFPQYAMAWYRHAPGKEREFVADITSRGGTTYYADSVKGRFTISRDNAKNTVFLQMNRLKPEDTAVYFCAADNPADWWGLDYWGQGTQVTVSS | low polyreactivity
2 | QVQLVESGGGLVQAGGSLRLSCAASGRIFPVYAMGWYRQAPGKERELVAAIDYSDGSTYYADSVKGRFTISRDNAKNTVYLQMNSLKPEDTAVYYCAADYDAIYLWWGYDYWGQGTQVTVSS | low polyreactivity
3 | QVQLVESGGGLVQAGGSLRLSCAASGSTFTRNAMGWYRQAPGKERELVAAISSRGTSTYYADSVKGRFTISRDNAKNTVYLQMNSLKPEDTAVYYCAAVGVKQYLGGNPFDYWGQGTQVTVSS | high polyreactivity
4 | QVQLVESGGGLVQAGGSLRLSCAASGRTFYIYAMGWYRQAPGTERELVAAITGCGGSTYYADSVKGRFTISRDNAKNTVYLQMNSLKPEDTAVYYCAAGFYGDGYTQGYGYWGQGTQVTVSS | low polyreactivity
5 | QVQLVESGGGLVQAGGSLRLSCAASGRIFVGNAMGWYRQAPGKERELVAAISRSGGRTYYADSVKGRFTISRDNAKNTVYLQMNSLKPEDTAVYYCYTRVYAGKYDYWGQGTQVTVSS | high polyreactivity
6 | QVQRVESGGGLVQAGGRLRLTCAASGSTFYVNAMVWYRQAPGKERELVAGISFSDGSTYYADSVKGRFTISRDNAKNTVYLQMNSLKPEDTAVYYCATVGAFDIYYGYGYWGQGTQVTVSS | low polyreactivity
7 | QVQLVESGGGLVQAGGSLRLSCAASGRIFPYYAMGWYRQAPGKERELVAAISSGTSTYYADSVKGRFTISRDNANNTVYLKMNSLKQEDTAVYYSNGRHRRGRFTHDYDYWGQGTQVTVTS | low polyreactivity
8 | QVQLVESGGGLVQAGGSLRISCAASGITFSENDMGWYRQAPGKERELDAAISSGDGTNYADSVKGRFTISRDNEKNTVYLQMNSLKPEDTAVYYCNADGFVDWAWSEQYIPNIHLDYWGQGTQVTVSS | low polyreactivity
9 | QVQLVESGGGLVQAGGSLRLSCAASGFTFWYYAMGCYRQAPGKERELVPSISSIGGSTYYADSVKGRFTISRDNAKYTVYLQMNSLKPEDTAVYYCAARYKFLRGGVRRDYLGQGTQVTVSS | high polyreactivity
10 | QVQLVESGGGLVQAGGSLRLSCAASGRIFYRNAMGWYRQAPGQERELVAAISKSGGSTYYADSVKGRFTISRDNAKNTVYLQMNSLKPEDTAVYYSAAGTRRTDGYSWGQGTQVTVAS | high polyreactivity
11 | QVQLVESGGGLVQAGGSLRLSCAASGSIFVYNAMGWYRQAPGKEREFVAAISWSVGRTYYADSVKGRFTFSRDNEKNTVYLQMNSLKPEDNAVYYCNAEFVAWYYYEEHDGDYWGQGTQVTVSS | high polyreactivity
12 | QVQLVESGGGLVQAGGSLRLSCAASGRTFGRYTMGWYRQAPGKERELVAAINWSGGRTYYADSVKGRFTISRDNAKNTVYLQMNSLKPEDTAVYYCNAVFANTSPEYEYWGQGTQVTVSS | high polyreactivity
13 | QVQLVESGGGLVQEGGSLRLSCAASGSIFRFYVMGWYRQAPGKERELVAAISIGGSTNYADSVKGRFTISRDNAKNTVYLQMNSRKPEDTAVYYCAADDWYGAGLPHGTEFDYWGQGTQVTVSS | low polyreactivity
14 | QVQLVESGGGLVQAGGSLRLSCAASGSIFASNAMGWYRQAPGKERGLVAAITYNGGSTYYADSVKGRFTISRDNAKNTVYLQMNSLKPEDTAVYYCAALGTRRPHIPRGDYWGQGTQVTVSS | low polyreactivity
15 | QVQLVESGGGLVQAGRSLRLRCPASGLTINSYAMGWYRQAPGKERELVAAIDWSGGRTYYADSVKGRFTISRDNAKNTVYLQMNSLKPEDTAVYYCAAYSRNRALRFNYWGQGTQVTVSS | high polyreactivity
16 | QVQLVESGGGLVQAGGSLRLSCDASGSIFSHYAMGWYRQAPGKERELVATITWRGGSNTNYADSVKGRFTISRDNAKNTVYLQMNSLKPEDTAVYYCAADGDGYYYWGQGTQVTVSS | low polyreactivity
17 | QVQLVESGGGLVQAGGSLRLSCAASGRIFRGYAMGWYRQAPGKERELVARITSSGSTNYADSVKGRFTISRDNAKNTVYLQMNSLKPEDTAVYYCAADKYYWGTGVWMDYWGQGTQVTVSS | high polyreactivity
18 | QVQLVESGGGLVQAGGSLRLSCAASGRTLHDYTMGWYRQEPGKERELVAGITSGGRTNYADSVKGRFTISRYNAKNTVYLQMNSLKPEDTAVYYCAAAWTWWRLYADDYWGQGTQVTVSS | high polyreactivity
19 | QVQLVESGGGLVQAGGSLRLSCAASGRIFIRNAMGWYRQAPGTERELVAAITSDGITYYADSVKGRFTISRDNATNTVYLQMNSLKPEDTAVYYCAKVGGWFSNLFIPRYREYNYWGQGTQVTVSP | low polyreactivity
20 | QDQLVESGGGLVQAGGSLRLSCAASALTFVRYAMGWYRQAPGKERELVAAISSGGSTNYADSVKGSFTISRDNAKNTVYLQMNSLKPEDSAVYYCAAVRYRYPHTMYYWGLGTQVTVSS | high polyreactivity
21 | QVQLVESGGGLVQAGGSLRLSCAASGRTFVYYAMGWYRQAPGKEREFVAAISRSGGRTSYADSVKGRFTISRDKAKNTVYLQMNSLKPEDTAVYYCAAKVRQWRQGSYSSQYDYWGQGTQVTVSS | high polyreactivity
22 | QVQLVESGGCLVQAGGSLRLSCAASGRIFLRYAMGWYRQAPGKEREFVADITYSGGSTYYADSVKGRFTISRDNAKNTVYLQMNSLKPEDTAVYYCAAGWVRPWATYKLDYWGQGTQVTVTS | high polyreactivity

Row | Sequence | polyreactivity (PSR sort gate)
23 | QVQLVESGGGLVQAGGSLRLSCAASGLIFSSYAMGWYRQAPGKERELVAAITGSGGRTYYADSVKGRFTISRDNAKNTVYLQMNSLKPEDTAVYYCAAKYPAPRYYTGYDYWGQGTQVTVSS | high polyreactivity
24 | QVQLVESGGGLVQAGGSLRLRCASSGRTFQYYAMGWYRQAPGKEMELVAAISWSGGSTYYADSVKGRFTISRDNAKNTVYLQMNSLKPEDTAVYYCAAVVGRNGTRSYGYWGQGTQVTVSS | high polyreactivity
25 | QVQLVESGGGLVQAGVSLRLSCAASGFTFDYYTMGWYRQAPGKEREFVAAITWNGGTTNYADSVKGRFTISRDNAKNTVYLQMNSLKPEDTAVYYCAATAYWYYSNDSGRSYDYWGQGTQVTVSS | low polyreactivity
26 | QVQLVESGGGLVQAGGSLRLSSAASGSIFGPYAMGWYRQAPGKERELVAAITWTGGRTYYADSVKGRFTISRDNAKKTVYLQMHSLKPEDTAVDYCAADYSPSTWYLYYTLYYYWGQGTQVTVSS | low polyreactivity
27 | QVQLVESGGGLDQARGSLRLSCAASGSTFYLYAMGWYRQAPGKERELVAAISSGGRTYYADSVKGRFTISRDNAKNTVYLQMNSLKPEDTAVYYCAKVYRRRYYWGQGTQVTVSS | high polyreactivity
28 | QVQLVESGGGLDQARGSLRLSCPASGFIFTDYAMGWYRQAPGKERELVAGISGSGGRTYYADSVKGRFTISRDNAKNTVYLQMNSLKPEDTAVYYCAARGVPWLWYFRGMYWGQGTQVTVSS | high polyreactivity
29 | QVQLVESGGGLVQAGGSLRLSCAASGFIFGGNAMGWYRQAPGNERELVARISSGGITSYADSVKGRFTISRDNAKNSVYLQMYSLKPEDTAVYYCAADDYVSTQDDSYYEYDYWGQGTQVTVSS | low polyreactivity
30 | QVQLVESGGGLVQAGGSLRLSCAASGRTFSGYAMGWYRQAPGKERELVAAISSGGGSTYYADSVKGRFTISRDNAKNTVYLQMNSLKPEDTAVYYCAADGYPGDYDYWRQGTQVTVSS | low polyreactivity
31 | QVQLVESGGGLHQAGGSLRLSCAASGSTYASNARGWYRQAPGKETELVAAITSRDASTYYADSVKGRFTISRDYAKNTVYLQMNRLKPEDTAVYYCATDGYSPAAFDYWGQGTQVTVSS | low polyreactivity
32 | QVQLVESGGGLVQAGGTLRLICAASAFIFDGYTMGWYRQAPGTERELVAAISRSGGRTYYADSVKGRFTISRDNAKNTVYLQMNSQKPEDTAVYDCAVRYRQYSQNLASDYGYWGQGTQVTVSS | high polyreactivity
33 | QVQLVDSGGGLVQAGGSLRLSCAASGLTFYHYTMGWYRQAPGKERELVPAITKNGGSTYYADSVKGRFTISRDNAKNTVYLQMNSLKPEDSAVYYCAAYEFGLLRYYSGRSYYYWGQGTQVTVSS | high polyreactivity
34 | QVQLVESGGGLVQAGGSLRLSCAASGSTFQYNAMGWYRQAPGKERELVAVISGSGSRTYYADSVKGRFTISRDNSKNTVYLQMNSLKPEDTAVYYCAKQRGGQPRSSTYYYWGQGTQVTVSS | high polyreactivity
35 | QVQLVESGGGLVQAGGSLRLSCAASGSTSVVNAMGWYRQAPGKERELVATITRSAGRTYYADSVKGRFTISRDNAKNTVYLQMNSLKPEDTAVSYCAKDTDISTHHSKGRAKSRYDYWGQGTQVTVSS | low polyreactivity
36 | QVQLVESGGGLVQAGGSLRLSCAASGSTFIWYDMGWYRQAPGKERELVATIDGNDGSTYYADSVKGRFTISRDNAKNTVYLQMNSLKPEDTAVYYCAKRSTGRLQSYNYWGQGTQVTVSS | low polyreactivity
37 | QVQLVESGGGLVQAGGSLRLSCAASGSIFWPYAMGWYRQAPGKERELVAAITWSGSSTYYADSVKGRFTISRDNAKNTVYLQMKSLKPEDTAVYYCAKRGWGIYDYWGQGTQVTVSS | low polyreactivity
38 | QVQLVESGGGLVQAGGSLRLSCAASGITLNRNAMGWYRQAHGKERELVARISRRGGTTYYADSVKGRFTISRDNAKNTVYLQMNSLKPEDTAVYYCNAGPYGGNPFDYWGQGTQVTVSS | high polyreactivity
39 | QVQLVESGGGLVQAGGSLRLSCDASGSILSFYVMGWYIQAPGKERELVAAINLSSGRTYYADSVKGRFTISRDNAKNTVYLQMNSLKPEDTAVYYCAKQVFGYGIVNNGDYWGQGTQVTVSS | high polyreactivity
40 | QVQLVESGGGLVQAGGSLRLSCAASGRTYKINAMGCYRQAPGKERELVASISRTGGTTYYADSVKGRFTNSRDNAKNTVYLQMNSLNPEDTAVYYCAVSDFGLLDCLTIYDEYDYWGQGTQVTVSS | high polyreactivity
41 | QVQLVESGGGLVQAGGSLRLSCAASGRITVFYTMGWYRQAPGKERELVATITRSGSRTYYADSVKGRFTISRDNAKNTVYLQMNSLKPEDTAVYYCARSQAVYDGWFAKFGYWGQGTQVTVSS | low polyreactivity
42 | QVQHVESGGGLVQAGGSLRLSCAASGFIFWYYAMGLYRQAPGKERELVADISSGGSTNYADSVKGRFTISRDNAKNTVYLQMNSLKPDDTAVYYCAADTFRRDDYWGQGTQVTVSS | low polyreactivity
43 | QVQHVESGGGLVQAGGSLRLSCAASGFTFVYYVMGWYRQAPGKERELVAAINAGGGSTYYADSVKGRFTISRDNAKNTVYLQMNSLKPEDTAVYYCNARVRVRLGRNWSSYYYWGQGTQVTVSS | high polyreactivity
